For test [1], the target named is membrane-associated human IR-B (plasma membranes of BHK cells stably transfected with the human IR-B insert) (human) (UniProt P06213). As to the kind of experiment: SPA competition vs [125I-A14Y]-human insulin, membrane hIR-B, 0.1% HSA.
The target in test [2] is insulin receptor on primary rat adipocytes (rat) (UniProt P15127). As to the kind of experiment: cell-based or functional assay.
Test [3] concerns the target membrane-associated human IR-A (plasma membranes of BHK cells stably transfected with the human IR-A insert) (human) (UniProt P06213). As to the kind of experiment: SPA competition vs [125I-A14Y]-human insulin, membrane hIR-A, 0.1% HSA.

This is an account of results in US20180305431A1 (Novo Nordisk, published 2018).

Sequence of insulin receptor on primary rat adipocytes (rat) (P15127 27-1383): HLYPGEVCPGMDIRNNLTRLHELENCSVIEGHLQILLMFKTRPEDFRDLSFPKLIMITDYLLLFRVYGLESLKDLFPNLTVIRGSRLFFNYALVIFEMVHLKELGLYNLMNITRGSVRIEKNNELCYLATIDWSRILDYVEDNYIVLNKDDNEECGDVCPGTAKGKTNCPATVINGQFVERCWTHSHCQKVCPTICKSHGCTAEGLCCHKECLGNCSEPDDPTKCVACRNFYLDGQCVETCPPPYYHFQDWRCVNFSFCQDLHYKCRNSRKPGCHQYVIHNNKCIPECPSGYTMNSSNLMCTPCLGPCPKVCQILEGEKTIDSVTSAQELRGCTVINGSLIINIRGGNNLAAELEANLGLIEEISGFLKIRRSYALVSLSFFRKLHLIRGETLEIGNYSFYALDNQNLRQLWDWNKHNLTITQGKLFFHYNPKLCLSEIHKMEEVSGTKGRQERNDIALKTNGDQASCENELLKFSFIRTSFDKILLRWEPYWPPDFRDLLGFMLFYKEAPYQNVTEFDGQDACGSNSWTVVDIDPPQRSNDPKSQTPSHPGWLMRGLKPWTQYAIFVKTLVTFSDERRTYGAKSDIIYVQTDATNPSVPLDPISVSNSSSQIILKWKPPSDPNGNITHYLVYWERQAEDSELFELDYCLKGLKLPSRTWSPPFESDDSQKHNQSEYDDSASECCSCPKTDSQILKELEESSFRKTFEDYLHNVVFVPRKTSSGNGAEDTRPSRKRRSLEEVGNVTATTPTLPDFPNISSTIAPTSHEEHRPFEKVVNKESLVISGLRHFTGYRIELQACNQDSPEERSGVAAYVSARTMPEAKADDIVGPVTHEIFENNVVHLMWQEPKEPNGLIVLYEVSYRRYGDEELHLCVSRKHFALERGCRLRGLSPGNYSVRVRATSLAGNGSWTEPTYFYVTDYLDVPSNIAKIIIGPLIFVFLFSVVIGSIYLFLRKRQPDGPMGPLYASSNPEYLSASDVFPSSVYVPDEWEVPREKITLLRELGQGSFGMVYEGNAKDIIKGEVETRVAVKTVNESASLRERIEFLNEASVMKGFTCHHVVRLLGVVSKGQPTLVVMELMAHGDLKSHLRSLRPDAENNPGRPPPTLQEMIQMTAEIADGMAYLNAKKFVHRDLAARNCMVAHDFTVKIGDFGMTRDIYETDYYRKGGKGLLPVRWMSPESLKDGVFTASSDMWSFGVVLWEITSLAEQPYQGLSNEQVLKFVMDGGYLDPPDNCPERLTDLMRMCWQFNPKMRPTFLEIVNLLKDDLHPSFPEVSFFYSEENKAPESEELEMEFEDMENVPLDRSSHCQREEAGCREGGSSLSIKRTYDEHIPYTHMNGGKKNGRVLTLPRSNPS
Sequence of membrane-associated human IR-B (plasma membranes of BHK cells stably transfected with the human IR-B insert) (human) (P06213 28-1382): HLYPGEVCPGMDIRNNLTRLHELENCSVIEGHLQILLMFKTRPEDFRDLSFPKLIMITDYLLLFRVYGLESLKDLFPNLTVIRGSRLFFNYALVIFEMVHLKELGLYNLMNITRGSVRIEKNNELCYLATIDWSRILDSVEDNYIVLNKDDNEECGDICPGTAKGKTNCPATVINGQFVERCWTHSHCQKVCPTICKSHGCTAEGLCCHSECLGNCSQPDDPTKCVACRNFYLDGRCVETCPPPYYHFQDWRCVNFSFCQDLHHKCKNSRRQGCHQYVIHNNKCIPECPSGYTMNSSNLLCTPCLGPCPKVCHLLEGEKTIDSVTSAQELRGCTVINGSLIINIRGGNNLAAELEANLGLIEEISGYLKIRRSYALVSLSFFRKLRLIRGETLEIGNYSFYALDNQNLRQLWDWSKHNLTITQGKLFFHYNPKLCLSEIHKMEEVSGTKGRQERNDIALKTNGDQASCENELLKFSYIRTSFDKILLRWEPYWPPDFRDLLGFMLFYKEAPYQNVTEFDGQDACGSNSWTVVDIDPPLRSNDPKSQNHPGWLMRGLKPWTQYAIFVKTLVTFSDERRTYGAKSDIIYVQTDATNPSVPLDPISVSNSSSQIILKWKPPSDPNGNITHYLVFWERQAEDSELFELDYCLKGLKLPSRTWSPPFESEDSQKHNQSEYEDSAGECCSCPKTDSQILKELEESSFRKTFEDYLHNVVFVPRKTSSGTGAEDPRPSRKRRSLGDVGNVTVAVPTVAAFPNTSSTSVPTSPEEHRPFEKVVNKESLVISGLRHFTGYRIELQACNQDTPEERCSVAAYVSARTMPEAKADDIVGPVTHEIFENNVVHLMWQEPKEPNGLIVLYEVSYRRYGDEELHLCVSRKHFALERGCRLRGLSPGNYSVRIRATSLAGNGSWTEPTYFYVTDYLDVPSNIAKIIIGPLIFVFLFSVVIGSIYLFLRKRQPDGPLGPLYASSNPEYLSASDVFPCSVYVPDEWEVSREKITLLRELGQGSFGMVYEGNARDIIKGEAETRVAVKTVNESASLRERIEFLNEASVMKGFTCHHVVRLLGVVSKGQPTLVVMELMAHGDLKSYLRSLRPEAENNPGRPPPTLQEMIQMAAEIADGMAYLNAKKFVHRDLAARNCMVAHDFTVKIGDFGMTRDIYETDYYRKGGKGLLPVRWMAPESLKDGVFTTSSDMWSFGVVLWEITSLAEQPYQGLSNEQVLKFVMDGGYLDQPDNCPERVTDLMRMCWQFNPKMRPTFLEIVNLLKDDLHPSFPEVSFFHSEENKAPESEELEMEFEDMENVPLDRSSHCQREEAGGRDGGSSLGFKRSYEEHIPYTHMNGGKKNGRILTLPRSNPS

With “A22K(N(eps)Hexadecanedioyl-gGlu-2xOEG), B3E, B27E, B29R, desB30 human insulin (ligand)”, the figures for the relative binding affinity (% rel to HI) in test [1] and in test [3] were 72.1 % rel to HI and 71.1 % rel to HI, respectively. Moreover, the Lipogenesis 1% HSA (% rel to HI) in test [2] is 3.2 % rel to HI.

Take “A22K(N(eps)hexadecanedioyl-4xgGlu), B3E, B26E, B29R, desB30 human insulin (ligand)”: the relative binding affinity (% rel to HI) in test [1] was 46.8 % rel to HI; in test [3], 29.1 % rel to HI.

With “A22K(N(eps)hexadecanedioyl-4xgGlu), B3E, B27E, B28E, B29R, desB30 human insulin (ligand)”, the values for the relative binding affinity (% rel to HI) in test [1] and in test [3] were 35.7 % rel to HI and 29.1 % rel to HI, respectively. For the same substance, in test [2], the Lipogenesis 1% HSA (% rel to HI) was 4.4 % rel to HI.

For the substance “A22K(N(eps)hexadecanedioyl-4xgGlu), B3E, B27E, B29R, desB30 human insulin (ligand)”, the relative binding affinity (% rel to HI) in test [1] was 55.3 % rel to HI; in test [3], 25.7 % rel to HI. In addition, the Lipogenesis 1% HSA (% rel to HI) in test [2] was 1.1 % rel to HI.

On to “A22K(N(eps)hexadecanedioyl-4xgGlu), B3E, B27P, B28E, B29R, desB30 human insulin (ligand)”, for which the relative binding affinity (% rel to HI) is 32.1 % rel to HI in test [1] and 27.5 % rel to HI in test [3]. Further, the Lipogenesis 1% HSA (% rel to HI) in test [2] was 3.7 % rel to HI.

As to “A22K(N(eps)hexadecanedioyl-4xgGlu), B3E, B28D, B29R, desB30 human insulin (ligand)”, the relative binding affinity (% rel to HI) in test [1] is 47.8 % rel to HI; in test [3], 20.9 % rel to HI. For the same substance, in test [2], the Lipogenesis 1% HSA (% rel to HI) was 3.8 % rel to HI.

As to “A22K(N(eps)hexadecanedioyl-gGlu-2xOEG), B3E, B26E, B29R, desB30 human insulin (ligand)”, the relative binding affinity (% rel to HI) is 40.2 % rel to HI in test [1] and 34.4 % rel to HI in test [3].

On to “A22K(N(eps)hexadecanedioyl-gGlu-2xOEG), B3E, B27E, B28E, B29R, desB30 human insulin (ligand)”, for which the relative binding affinity (% rel to HI) in test [1] is 38.2 % rel to HI; in test [3] it was 30.9 % rel to HI. Further, the Lipogenesis 1% HSA (% rel to HI) in test [2] was 4.4 % rel to HI.

As for “A22K(N(eps)hexadecanedioyl-gGlu-2xOEG), B3E, B27P, B28E, B29R, desB30 human insulin (ligand)”, the relative binding affinity (% rel to HI) is 29.4 % rel to HI in test [1] and 31.2 % rel to HI in test [3]. Besides, in test [2], the Lipogenesis 1% HSA (% rel to HI) is 3.3 % rel to HI.

With “A22K(N(eps)hexadecanedioyl-gGlu-2xOEG), B3E, B28D, B29R, desB30 human insulin (ligand)”, the relative binding affinity (% rel to HI) is 40.7 % rel to HI in test [1] and 32.1 % rel to HI in test [3]. In addition, the Lipogenesis 1% HSA (% rel to HI) in test [2] is 2.6 % rel to HI.

“A22K(N(eps)tetradecanedioyl-4xgGlu), B3E, B26E, B27E, B28E, B29R, desB30 human insulin (ligand)”: the relative binding affinity (% rel to HI) in test [1] was 82.4 % rel to HI; in test [3] it was 48.3 % rel to HI. Besides, in test [2], the Lipogenesis 1% HSA (% rel to HI) was 18.2 % rel to HI.

Turning to “A22K(N(eps)tetradecanedioyl-4xgGlu), B3E, B26E, B27E, B28R, desB29, desB30 human insulin (ligand)”, the relative binding affinity (% rel to HI) in test [1] was 93.3 % rel to HI; in test [3], 57.2 % rel to HI. Also, the Lipogenesis 1% HSA (% rel to HI) in test [2] is 29.6 % rel to HI.

Consider “A22K(N(eps)tetradecanedioyl-4xgGlu), B3E, B26E, B27P, B28R, desB29, desB30 human insulin (ligand)”, for which the relative binding affinity (% rel to HI) in test [1] is 90.7 % rel to HI; in test [3] it was 63.2 % rel to HI. The Lipogenesis 1% HSA (% rel to HI) in test [2] was 78.8 % rel to HI.

Regarding “A22K(N(eps)tetradecanedioyl-4xgGlu), B3E, B26E, B28E, B29P, B30R human insulin (ligand)”, the relative binding affinity (% rel to HI) in test [1] was 76.2 % rel to HI; in test [3] it was 46.4 % rel to HI. Also, the Lipogenesis 1% HSA (% rel to HI) in test [2] was 17.9 % rel to HI.

On to “A22K(N(eps)tetradecanedioyl-4xgGlu), B3E, B26E, B28E, B29R, desB30 human insulin (ligand)”, for which the relative binding affinity (% rel to HI) was 111 % rel to HI in test [1] and 68 % rel to HI in test [3]. Moreover, in test [2], the Lipogenesis 1% HSA (% rel to HI) is 20.5 % rel to HI.

With “A22K(N(eps)tetradecanedioyl-4xgGlu), B3E, B26E, B29R, desB30 human insulin (ligand)”, the relative binding affinity (% rel to HI) in test [1] was 105 % rel to HI; in test [3], 66.9 % rel to HI. In addition, the Lipogenesis 1% HSA (% rel to HI) in test [2] was 31.3 % rel to HI.

With “A22K(N(eps)tetradecanedioyl-4xgGlu), B3E, B27E, B28E, B29P, B30R human insulin (ligand)”, the relative binding affinity (% rel to HI) in test [1] was 70 % rel to HI; in test [3], 45.1 % rel to HI. Also, the Lipogenesis 1% HSA (% rel to HI) in test [2] was 23.7 % rel to HI.

As for “A22K(N(eps)tetradecanedioyl-4xgGlu), B3E, B27E, B28E, B29R, desB30 human insulin (ligand)”, the relative binding affinity (% rel to HI) in test [1] is 157 % rel to HI; in test [3], 74.9 % rel to HI. Moreover, in test [2], the Lipogenesis 1% HSA (% rel to HI) is 27.3 % rel to HI.

Regarding “A22K(N(eps)tetradecanedioyl-4xgGlu), B3E, B27E, B28R, desB29, desB30 human insulin (ligand)”, the figures for the relative binding affinity (% rel to HI) in test [1] and in test [3] were 81.7 % rel to HI and 40.6 % rel to HI, respectively. Also, the Lipogenesis 1% HSA (% rel to HI) in test [2] is 29.9 % rel to HI.

Consider “A22K(N(eps)tetradecanedioyl-4xgGlu), B3E, B27E, B29R, desB30 human insulin (ligand)”, for which the relative binding affinity (% rel to HI) is 119 % rel to HI in test [1] and 61.5 % rel to HI in test [3]. The Lipogenesis 1% HSA (% rel to HI) in test [2] is 11.1 % rel to HI.

As for “A22K(N(eps)tetradecanedioyl-4xgGlu), B3E, B27P, B28E, B29R, desB30 human insulin (ligand)”, the figures for the relative binding affinity (% rel to HI) in test [1] and in test [3] were 77.6 % rel to HI and 64.3 % rel to HI, respectively. Moreover, the Lipogenesis 1% HSA (% rel to HI) in test [2] is 27 % rel to HI.

Regarding “A22K(N(eps)tetradecanedioyl-4xgGlu), B3E, B28D, B29R, desB30 human insulin (ligand)”, the results for the relative binding affinity (% rel to HI) in test [1] and in test [3] were 93.7 % rel to HI and 64.9 % rel to HI, respectively. In addition, in test [2], the Lipogenesis 1% HSA (% rel to HI) is 26.4 % rel to HI.

Consider “A22K(N(eps)tetradecanedioyl-4xgGlu), B3E, B28E, B29P, B30R human insulin (ligand)”, for which the relative binding affinity (% rel to HI) is 94.5 % rel to HI in test [1] and 44.6 % rel to HI in test [3]. In test [2], the Lipogenesis 1% HSA (% rel to HI) is 19.5 % rel to HI.

On to “A22K(N(eps)tetradecanedioyl-4xgGlu), B3Q, B26E, B28E, B29R, desB30 human insulin (ligand)”, for which the relative binding affinity (% rel to HI) in test [1] was 133 % rel to HI; in test [3], 78.5 % rel to HI. The Lipogenesis 1% HSA (% rel to HI) in test [2] was 31.2 % rel to HI.

As for “A22K(N(eps)tetradecanedioyl-4xgGlu), B3Q, B26E, B29R, desB30 human insulin (ligand)”, the relative binding affinity (% rel to HI) was 163 % rel to HI in test [1] and 76.5 % rel to HI in test [3]. The Lipogenesis 1% HSA (% rel to HI) in test [2] was 31.4 % rel to HI.

Consider “A22K(N(eps)tetradecanedioyl-gGlu-2xOEG), B3E, B27E, B28E, B29R, desB30 human insulin (ligand)”, for which the relative binding affinity (% rel to HI) was 159 % rel to HI in test [1] and 103 % rel to HI in test [3]. The Lipogenesis 1% HSA (% rel to HI) in test [2] is 23.9 % rel to HI.
